We go through five molecules from paper PMC3834884, “A fully caninised anti-NGF monoclonal antibody for pain relief in dogs” (BMC Veterinary Research, 2013).

In experiment [1] the target is T1, mouse nerve growth factor (muNGF) (Mus musculus, UniProt P01139). In words: cell-based or functional assay.
For experiment [2], the target named is T1, mouse nerve growth factor (muNGF). In words: SPR; ProteOn XPR36, GLM chip; muNGF amine-coupled (50 ug/mL, sodium acetate pH 4.5); NV-01 passed over at 500, 250, 125, 62.5 and 31.25 nM for 60 s; Langmuir fit. Particulars: both partners purified.
Experiment [3] shares this target. As to the kind of experiment: ELISA; plates coated with NGF (0.1 ug/ml muNGF; canine NGF in Figure 2A), blocked with 5% BSA/PBS; CHO cell supernatants with canine anti-NGF IgG 1 h at room temperature in PBS/1% BSA; detected with rabbit anti-canine IgG-HRP. The note with it: one partner purified. On the technique in general: An ELISA detects its analyte on a solid surface through an enzyme-linked reagent.

Experiment [4] addresses T2, canine nerve growth factor with a C-terminal poly-His tag (Canis lupus familiaris, UniProt A0A8I3PYI3).
T2 construct: canine beta NGF, expressed from a cDNA that encodes canine pre-pro beta NGF; the mature form is surmised; also called canine NGF; caNGF; source: HEK293 cells, transient transfection, purified from supernatant (Ni-HiTrap); not shown: poly-His, C-terminal, kept
The experiment is described as above. Particulars: one partner purified.

T1 sequence (P01139 122-241): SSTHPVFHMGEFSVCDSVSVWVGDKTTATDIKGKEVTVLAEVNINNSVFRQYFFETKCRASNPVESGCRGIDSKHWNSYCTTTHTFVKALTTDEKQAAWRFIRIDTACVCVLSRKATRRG

B1: NV-01 (caN2-HCA1-kLC1), fully caninised anti-NGF monoclonal antibody (antibody, V domains shown)
VH: EVQLVESGGGLVQPGGSLRLSCVASGFSLTNNNVNWVRQAPGKGLEWVGGVWAGGATDYNSALKSRFTISRDNAKNTVFLQMHSLRSEDTAVYYCARDGGYSSSTLYAMDAWGQGTSVTVSS
VL: DIVMTQSPASLSLSQGETVTITCRASEDIYNALAWYQQKPGQAPKLLIYNTDTLHTGVPSRFSGSGSGTDFSLTISSLEPEDVAVYYCQHYFHYPRTFGQGTKVELK
notes: caN2 heavy chain variable domain (caninised rat alphaD11 VH, modified framework); caninised alphaD11 light chain variable domain (caN-kLC1); canine kappa light chain constant domain; Canine IgG-A, kappa; also called caninised anti-NGF mAb; copies: 2 + 2
Broadly, the Kd is the equilibrium constant for the complex coming apart. A lower Kd goes with tighter binding. For B1, in experiment [1], the “IC50 of inhibition of NGF-induced proliferation of TF-1 cells (1 ng/ml NGF; NV-01 2.5 ng/ml to 0.002 ng/ml); blocked: NGF and its receptor on TF-1 cells” value was determined as 0.02 ng/mL. Besides, in experiment [2], the Kd is < 1 pM.

B2: caN-HCB2 + kLC1, caninised anti-NGF antibody with canine IgG heavy chain isotype B (antibody, V domains shown)
VH: EVQLVESGGDLVNPGGTLTLSCVVSGFSLTNNNVNWVRQALGRGLEWVGGVWAGGATDYNSALKSRLTITRDTSKSTVFLKMHSLQSEDTATYYCARDGGYSSSTLYAMDAWGQGTLVTVSS
VL: B1 VL
notes: caN heavy chain variable domain (first caninised alphaD11 VH); as the light chain variable domain of m1 (caN-kLC1); canine kappa light chain constant domain; Canine IgG-B, kappa; also called caN-HCB-kLC; type B anti-NGF antibody; source: CHO cells, transient transfection, supernatant; purified on protein A
B2: the binding result in experiment [3] and in experiment [4] was “binds” each time.

B3: caN-HCD2 + kLC1, caninised anti-NGF antibody with canine IgG heavy chain isotype D (antibody, V domains shown)
VH: B2 VH
VL: B1 VL
notes: caN heavy chain variable domain (first caninised alphaD11 VH); as the light chain variable domain of m1 (caN-kLC1); canine kappa light chain constant domain; Canine IgG-D, kappa; also called caN-HCD + kLC; ca-HCD2 + kLC1; source: CHO cells, transient transfection, supernatant; purified using Protein L
As for B3, the binding result in experiment [3] is “binds”.

B4: caN-HCC1 + kLC1, caninised anti-NGF antibody with canine IgG heavy chain isotype C (antibody, V domains shown)
VH: B2 VH
VL: B1 VL
notes: caN heavy chain variable domain (first caninised alphaD11 VH); as the light chain variable domain of m1 (caN-kLC1); canine kappa light chain constant domain; Canine IgG-C, kappa; also called caN-HCC-kLC; type C anti-NGF antibody; source: CHO cells, transient transfection, supernatant; purified on Protein G
In the case of B4, the binding result in experiment [3] is “binds”.

B5: caN-HCA1 + kLC1, caninised anti-NGF antibody with canine IgG heavy chain isotype A (antibody, V domains shown)
VH: B2 VH
VL: B1 VL
notes: caN heavy chain variable domain (first caninised alphaD11 VH); as the light chain variable domain of m1 (caN-kLC1); canine kappa light chain constant domain; Canine IgG-A, kappa; also called caN-HCA + kLC; type A anti-NGF antibody; source: CHO cells, transient transfection, supernatant; purified using Protein L
Take B5: the binding result in experiment [3] is given as “binds”.
